A word on the Kd: it is the constant that tells how readily two partners part at equilibrium. Lower therefore signals higher affinity.

The values below come from paper PMC2982890 (Biochemistry, 2010).

B1: nuclear coactivator binding domain (NCBD) of CBP (residues 2059–2117) (domain or fragment, mouse, UniProt P45481 2059-2117, looked up)
chain: PPRSISPSALQDLLRTLKSPSSPQQQQQVLNILKSNPQLMAAFIKQRTAKYVANQPGMQ

Test [1] has as its target p53(1–61), full-length transactivation domain (TAD) of human p53 (human, UniProt P04637 1-61). Kind of test: ITC + NMR titration.
Test [2] has as its target B1. Kind of test: ITC.
Test [3] has as its target B1. Kind of test: ITC + NMR titration.

Turning to B1, the binding result in test [1] was “binds”.
For the molecule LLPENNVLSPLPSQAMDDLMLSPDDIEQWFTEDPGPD (domain or fragment, human, UniProt P04637 25-61, looked up) [p53(25–61)], in test [2], the Kd worked out at 5.4 ± 1.8 µM and the dH is -4.12 ± 0.46 kcal/mol. Besides, the “fold weaker binding than p53(1–61)” value in test [3] was 2 to 3 fold.
For LSQETFSDLWKLLPE (peptide, UniProt P04637 14-28, looked up) [p53(14–28), isolated AD1 peptide], the “fold weaker binding than p53(1–61)” value in test [3] was around 170 fold.
